The results in this text go back to PMC3462211, “3D Domain Swapping Causes Extensive Multimerisation of Human Interleukin-10 When Expressed In Planta” (PLoS ONE, 2012).

The target of data set [1] is human IL-10 fused to the C-terminus of constant domains 2 and 3 of human immunoglobulin A2m1 (Fcα-hIL-10), plant produced (human) (UniProt P22301). The experiment in a line: non-reducing SDS-PAGE with Western blot; soluble plant proteins (crude leaf extract, desalted on G25 Sephadex, filter sterilised) separated under non-reducing conditions on a NuPAGE 12% Bis-Tris gel; detected with antibodies against hIL-10 or IgA. On the technique in general: Immunoblotting shows a protein as a band on a membrane.

The target of data set [2] is human IL-10^mono fused to the C-terminus of constant domains 2 and 3 of human immunoglobulin A2m1 (Fcα-hIL-10^mono), plant produced (human) (UniProt P22301). The data set is described as above.
Data set [3] deals with the molecule itself. The description is as above.
Data set [4] deals with the molecule itself. The experiment in a line: non-reducing SDS-PAGE with Western blot; 50 ng recombinant E. coli produced hIL-10 (R&D Systems) separated under non-reducing conditions on a NuPAGE 12% Bis-Tris gel; detected with an antibody against hIL-10.

Bounds are passed on as bounds.

In general, stoichiometry N refers to a count of units in the complex or per binding partner. Turning to “human IL-10 fused to the C-terminus of constant domains 2 and 3 of human immunoglobulin A2m1 (Fcα-hIL-10), plant produced (from UniProt P22301 19-178) (Fc fusion)”, in data set [1], the stoichiometry N is 2.

Consider “human IL-10^mono fused to the C-terminus of constant domains 2 and 3 of human immunoglobulin A2m1 (Fcα-hIL-10^mono), plant produced (from UniProt P22301 19-178) (Fc fusion)”, for which the stoichiometry N in data set [2] stood at 2.

B1: plant produced human interleukin-10 (natural protein, UniProt P22301 19-178, looked up)
chain: SPGQGTQSENSCTHFPGNLPNMLRDLRDAFSRVKTFFQMKDQLDNLLLKESLLEDFKGYLGCQALSEMIQFYLEEVMPQAENQDPDIKAHVNSLGENLKTLRLRLRRCHRFLPCENKSKAVEQVKNAFNKLQEKGIYKAMSEFDIFINYIEAYMTMKIRN
notes: signal peptide in the construct; human interleukin-10, complete native open reading frame (178 amino acids including the N-terminal signal peptide); the NcoI site adds two extra amino acids to the N-terminus of the signal peptide; Secreted through its own signal peptide; also called hIL-10; human IL-10; source: Nicotiana benthamiana leaves, agro-infiltrated (transient), in desalted crude extract
For the molecule B1, the “stoichiometry N” value in data set [3] is not below 2.

B2: recombinant E. coli produced human IL-10 (natural protein, UniProt P22301 19-178, looked up)
chain: SPGQGTQSENSCTHFPGNLPNMLRDLRDAFSRVKTFFQMKDQLDNLLLKESLLEDFKGYLGCQALSEMIQFYLEEVMPQAENQDPDIKAHVNSLGENLKTLRLRLRRCHRFLPCENKSKAVEQVKNAFNKLQEKGIYKAMSEFDIFINYIEAYMTMKIRN
notes: human interleukin-10, recombinant, E. coli produced, 18 kDa on the blot; also called r hIL-10; E. coli produced hIL-10; source: bought: R&D Systems (recombinant, E. coli produced)
In the case of B2, the “stoichiometry N” value in data set [4] is not below 2.
